{"source": "patent US20030092067A1", "key": {"[1]": {"target": "Abz-Bip-Ala-hLeu-Cha-Tyr(NO2)-Asp-NH2"}, "[2]": {"target": "Abz-Val-Ala-(NMe)Nle-Ser-Tyr(NO2)-Asp-NH2"}, "[3]": {"target": "Ac-Val-Ala-Nle-Ser-Tyr(NO2)-NH2"}, "[4]": {"target": "Abz-Lys-Ala-hLeu-Ser-Tyr(NO2)-Asp-NH2"}, "[5]": {"target": "Abz-Val-DAla-hLeu-Ser-Tyr(NO2)-Asp-NH2"}, "[6]": {"target": "Abz-Val-Ala-His-Ser-Tyr(NO2)-Aso-NH2"}, "[7]": {"target": "Abz-Val-Ala-Aib-Ser-Tyr(NO2)-Asp-NH2"}, "[8]": {"target": "Abz-Val-Aib-Nle-Ser-Tyr(NO2)-Asp-NH2"}, "[9]": {"target": "Abz-3.Pyr-Val-Ala-Nle-Ser-Tyr(NO2)-Asp-NH2"}, "[10]": {"target": "Abz-Val-Ala-Nle-Ser-Lys-Asp-NH2"}, "[11]": {"target": "Abz-Val-DGln-hLeu-Ser-Tyr(NO2)-Asp-NH2"}, "[12]": {"target": "Abz-Nle-Ser-Tyr(NO2)-Asp-NH2"}, "[13]": {"target": "Abz-Val-Ala-ACH-Ser-Tyr(NO2)-Asp-NH2"}, "[14]": {"target": "Abz-Val-Ala-Nle-Ser-Ala-Asp-NH2"}, "[15]": {"target": "Abz-Bip-Ala-hLeu-Tyr-Tyr(NO2)-Asp-NH2"}, "[16]": {"target": "Abz-Val-Ala-Cha-Ser-Tyr(NO2)-Asp-NH2"}, "[17]": {"target": "Abz-Bip-Ala-hLeu-Met(O)-Tyr(NO2)-Asp-NH2"}, "[18]": {"target": "Abz-ACH-Ala-hLeu-Ser-Tyr(NO2)-Asp-NH2"}, "[19]": {"target": "H-Val-Ala-Nle-Ser-Tyr(NO2)-NH2"}, "[20]": {"target": "Abz-p.Aba-Nle-Ser-Tyr(NO2)-Asp-NH2"}, "[21]": {"target": "Abz-Glu-Val-Ala-Nle-Ser-Tyr(NO2)-Asp-NH2"}, "[22]": {"target": "Bz-Val-Ala-Nle-Ser-Tyr(NO2)-NH2"}, "[23]": {"target": "Abz-Bip-Ala-hLeu-Asp-Tyr(NO2)-Asp-NH2"}, "[24]": {"target": "Abz-2.Naph-Val-Ala-Nle-Ser-Tyr(NO2)-Asp-NH2"}, "[25]": {"target": "Abz-Val-3pyr-hLeu-Ser-Tyr(NO2)-Asp-NH2"}, "[26]": {"target": "Abz-Ala-Nle-Ser-Tyr(NO2)-Asp-NH2"}, "[27]": {"target": "Piv-Val-Ala-Nle-Ser-Tyr(NO2)-NH2"}, "[28]": {"target": "Abz-Val-ACH-hLeu-Ser-Tyr(NO2)-Asp-NH2"}, "[29]": {"target": "Chex-Val-Ala-Nle-Ser-Tyr(NO2)-NH2"}, "[30]": {"target": "Abz-Hyp-Val-Ala-Nle-Ser-Tyr(NO2)-Asp-NH2"}, "[31]": {"target": "Abz-Val-Ala-Nle-Ser-NH2"}, "[32]": {"target": "Abz-Val-Met(O)-hLeu-Ser-Tyr(NO2)-Asp-NH2"}, "[33]": {"target": "Abz-Tic-Ala-hLeu-Ser-Tyr(NO2)-Asp-NH2"}, "[34]": {"target": "Abz-Leu-Ala-hLeu-Ser-Tyr(NO2)-Asp-NH2"}, "[35]": {"target": "Ac-Val-Ala-Nie-Ser-Tyr(NO2)-Asp-NH2"}, "[36]": {"target": "Abz-Met(O)-Ala-hLeu-Ser-Tyr(NO2)-Asp-NH2"}, "[37]": {"target": "Abz-Val-Ala-Nle-Ser-Tyr(NO2)-Asp-NH2"}}}
{"protein": "Der pI (protein) TNACSINGNAPAEIDLRQMRTVTPIRMQGGCGSCWAFSGVAATESAYLAYRNQSLDLAEQELVDCASQHGCHGDTIPRGIEYIQHNGVVQESYYRYVAREQSCRRPNAQRFGISNYCQIYPPNVNKIREALAQTHSAIAVIIGIKDLDAFRHYDGRTIIQRDNGYQPNYHAVNIVGYSNAQGVDYWIVRNSWDTNWGDNGYGYFAANIDLMMIEEYPYVVIL", "values": [{"measurement": "Measured Km", "setting": "[1]", "result": 2.5, "unit": "µM"}, {"measurement": "Measured Km (µM)", "setting": "[2]", "result": "NS"}, {"measurement": "Measured Km (µM)", "setting": "[3]", "result": "NS"}, {"measurement": "Measured Km", "setting": "[4]", "result": "> 15", "unit": "µM"}, {"measurement": "Measured Km (µM)", "setting": "[5]", "result": "NS"}, {"measurement": "Measured Km", "setting": "[6]", "result": "> 20", "unit": "µM"}, {"measurement": "Measured Km (µM)", "setting": "[7]", "result": "NS"}, {"measurement": "Measured Km (µM)", "setting": "[8]", "result": "NS"}, {"measurement": "Measured Km (µM)", "setting": "[9]", "result": "NM"}, {"measurement": "Measured Km (µM)", "setting": "[10]", "result": "NM"}, {"measurement": "Measured Km (µM)", "setting": "[11]", "result": "NS"}, {"measurement": "Measured Km (µM)", "setting": "[12]", "result": "NS"}, {"measurement": "Measured Km (µM)", "setting": "[13]", "result": "NS"}, {"measurement": "Measured Km (µM)", "setting": "[14]", "result": "NM"}, {"measurement": "Measured Km", "setting": "[15]", "result": 3, "unit": "µM"}, {"measurement": "Measured Km", "setting": "[16]", "result": 5, "unit": "µM"}, {"measurement": "Measured Km", "setting": "[17]", "result": 5, "unit": "µM"}, {"measurement": "Measured Km (µM)", "setting": "[18]", "result": "NS"}, {"measurement": "Measured Km (µM)", "setting": "[19]", "result": "NS"}, {"measurement": "Measured Km (µM)", "setting": "[20]", "result": "NS"}, {"measurement": "Measured Km", "setting": "[21]", "result": 20, "unit": "µM"}, {"measurement": "Measured Km (µM)", "setting": "[22]", "result": "NM^a"}, {"measurement": "cleavage rate (rank order)", "setting": "[22]", "result": "Bz>n-But>Piv>Bz(2-carboxy)>Abz"}, {"measurement": "Measured Km", "setting": "[23]", "result": 5, "unit": "µM"}, {"measurement": "Measured Km (µM)", "setting": "[24]", "result": "NM"}, {"measurement": "Measured Km (µM)", "setting": "[25]", "result": "NS"}, {"measurement": "Measured Km (µM)", "setting": "[26]", "result": "NM"}, {"measurement": "Measured Km (µM)", "setting": "[27]", "result": "NM^a"}, {"measurement": "cleavage rate (rank order)", "setting": "[27]", "result": "Bz>n-But>Piv>Bz(2-carboxy)>Abz"}, {"measurement": "Measured Km (µM)", "setting": "[28]", "result": "NS"}, {"measurement": "Measured Km (µM)", "setting": "[29]", "result": "NM^a"}, {"measurement": "Measured Km (µM)", "setting": "[30]", "result": "NS"}, {"measurement": "Measured Km (µM)", "setting": "[31]", "result": "NM"}, {"measurement": "Measured Km", "setting": "[32]", "result": 35, "unit": "µM"}, {"measurement": "Measured Km (µM)", "setting": "[33]", "result": "NS"}, {"measurement": "Measured Km", "setting": "[34]", "result": 18, "unit": "µM"}, {"measurement": "Measured Km (µM)", "setting": "[35]", "result": "NS"}, {"measurement": "Measured Km", "setting": "[36]", "result": 20, "unit": "µM"}, {"measurement": "Measured Km", "setting": "[37]", "result": 12, "unit": "µM"}, {"measurement": "kcat/Km", "setting": "[37]", "result": 35000, "unit": "M⁻¹ s⁻¹"}]}
